Here are results for five variants from IntAct's records for PubMed 18566586.

B1: RAC-alpha serine/threonine-protein kinase (Mus musculus), P31750 (parent)
chain: MNDVAIVKEGWLHKRGEYIKTWRPRYFLLKNDGTFIGYKERPQDVDQRESPLNNFSVAQCQLMKTERPRPNTFIIRCLQWTTVIERTFHVETPEEREEWATAIQTVADGLKRQEEETMDFRSGSPSDNSGAEEMEVSLAKPKHRVTMNEFEYLKLLGKGTFGKVILVKEKATGRYYAMKILKKEVIVAKDEVAHTLTENRVLQNSRHPFLTALKYSFQTHDRLCFVMEYANGGELFFHLSRERVFSEDRARFYGAEIVSALDYLHSEKNVVYRDLKLENLMLDKDGHIKITDFGLCKEGIKDGATMKTFCGTPEYLAPEVLEDNDYGRAVDWWGLGVVMYEMMCGRLPFYNQDHEKLFELILMEEIRFPRTLGPEAKSLLSGLLKKDPTQRLGGGSEDAKEIMQHRFFANIVWQDVYEKKLSPPFKPQVTSETDTRYFDEEFTAQMITITPPDQDDSMECVDSERRPHFPQFSYSASGTA

The variants in the first assay derive from B1. Conditions: with hs90a_mouse Hsp90aa1, P07901.
For MNDVAIVKEGWLHKRGEYIKTWRPRYFLLKNDGTFIGYKERPQDVDQRESPLNNFSVAQCQLMKTERPRPNTFIIRCLQWTTVIERTFHVETPEEREEWATAIQTVADGLKRQEEETMDFRSGSPSDNSGAEEMEVSLAKPKHRVTMNEFEYLKLLGKGTFGMVILVKEKATGRYYAMKILKKEVIVAKDEVAHTLTENRVLQNSRHPFLTALKYSFQTHDRLCFVMEYANGGELFFHLSRERVFSEDRARFYGAEIVSALDYLHSEKNVVYRDLKLENLMLDKDGHIKITDFGLCKEGIKDGATMKTFCGTPEYLAPEVLEDNDYGRAVDWWGLGVVMYEMMCGRLPFYNQDHEKLFELILMEEIRFPRTLGPEAKSLLSGLLKKDPTQRLGGGSEDAKEIMQHRFFANIVWQDVYEKKLSPPFKPQVTSETDTRYFDEEFTAQMITITPPDQDDSMECVDSERRPHFPQFSYSASGTA [K163M], the “effect of a mutation on the interaction” value was “increasing interaction”.

In a further assay the parent is B1. Particulars: with hs90a_mouse Hsp90aa1, P07901. This is another data set of the same source.
Take MNDVAIVKEGWLHKRGEYIKTWRPRYFLLKNDGTFIGYKERPQDVDQRESPLNNFSVAQCQLMKTERPRPNTFIIRCLQWTTVIERTFHVETPEEREEWATAIQTVADGLKRQEEETMDFRSGSPSDNSGAEEMEVSLAKPKHRVTMNEFEYLKLLGKGTFGKVILVKEKATGRYYAMKILKKEVIVAKDEVAHTLTENRVLQNSRHPFLTALKYSFQTHDMLCFVMEYANGGELFFHLSRERVFSEDRARFYGAEIVSALDYLHSEKNVVYRDLKLENLMLDKDGHIKITDFGLCKEGIKDGATMKTFCGTPEYLAPEVLEDNDYGRAVDWWGLGVVMYEMMCGRLPFYNQDHEKLFELILMEEIRFPRTLGPEAKSLLSGLLKKDPTQRLGGGSEDAKEIMQHRFFANIVWQDVYEKKLSPPFKPQVTSETDTRYFDEEFTAQMITITPPDQDDSMECVDSERRPHFPQFSYSASGTA [R222M]: the “effect of a mutation on the interaction” value is “increasing interaction”.

With MNDVAIVKEGWLHKRGEYIKTWRPRYFLLKNDGTFIGYKERPQDVDQRESPLNNFSVAQCQLMKTERPRPNTFIIRCLQWTTVIERTFHVETPEEREEWATAIQTVADGLKRQEEETMDFRSGSPSDNSGAEEMEVSLAKPKHRVTMNEFEYLKLLGKGTFGKVILVKEKATGRYYAMKILMKEVIVAKDEVAHTLTENRVLQNSRHPFLTALKYSFQTHDRLCFVMEYANGGELFFHLSRERVFSEDRARFYGAEIVSALDYLHSEKNVVYRDLKLENLMLDKDGHIKITDFGLCKEGIKDGATMKTFCGTPEYLAPEVLEDNDYGRAVDWWGLGVVMYEMMCGRLPFYNQDHEKLFELILMEEIRFPRTLGPEAKSLLSGLLKKDPTQRLGGGSEDAKEIMQHRFFANIVWQDVYEKKLSPPFKPQVTSETDTRYFDEEFTAQMITITPPDQDDSMECVDSERRPHFPQFSYSASGTA [K182M], the “effect of a mutation on the interaction” value is “increasing interaction”.

The variants in a further assay derive from B1. Particulars: with hs90a_mouse Hsp90aa1, P07901. The source holds these as a separate data set.
Turning to MNDVAIVKEGWLHKRGEYIKTWRPRYFLLKNDGTFIGYKERPQDVDQRESPLNNFSVAQCQLMKTERPRPNTFIIRCLQWTTVIERTFHVETPEEREEWATAIQTVADGLKRQEEETMDFRSGSPSDNSGAEEMEVSLAKPKHRVTMNEFEYLKLLGKGTFGKVILVKEKATGRYYAMKILKKEVIVAKDEVAHTLTENRVLQNSRHPFLTALKYSFQTHDRLCFVMEYANGGELFFHLSRERVFSEDRARFYGAEIVSALDYLHSEKNVVYRDLKLENLMLDKDGHIKITDFGLCKEGIKDGATMKTFCGTPEYLAPEVLEDNDYGRAVDWWGLGVVMYEMMCGRLPFYNQDHEKLFELILMEEIRFPRTLGPEAKSLLSGLLKKDPTQRLGGGSEDAKEIMQHRFFANIVWQDVYEKKLSPPFKPQVTSETDTRYFDEEFAAQMITITPPDQDDSMECVDSERRPHFPQFSYSASGTA [T443A], the “effect of a mutation on the interaction” value is recorded as “increasing interaction”.

The next assay covers variants of B1. Particulars: with hs90a_mouse Hsp90aa1, P07901. The source holds these as a separate data set.
As to MNDVAIVKEGWLHKRGEYIKTWRPRYFLLKNDGTFIGYKERPQDVDQRESPLNNFSVAQCQLMKTERPRPNTFIIRCLQWTTVIERTFHVETPEEREEWATAIQTVADGLKRQEEETMDFRSGSPSDNSGAEEMEVSLAKPKHRVTMNEFEYLKLLGKGTFGKVILVKEKATGRYYAMKILKKEVIVAKDEVAHTLTENRVLQNSRHPFLTALKYSFQTHDRLCFVMEYANGGELFFHLSRERVFSEDRARFYGAEIVSALDYLHSEKNVVYRDLKLENLMLDKDGHIKITDFGLCKEGIKDGATMKTFCGTPEYLAPEVLEDNDYGRAVDWWGLGVVMYEMMCGRLPFYNQDHEKLFELILMEEIRFPRTLGPEAKSLLSGLLKKDPTQRLGGGSEDAKEIMQHRFFANIVWQDVYEKKLSPPFKPQVTSETDTRYFDEEFTAQMITIAPPDQDDSMECVDSERRPHFPQFSYSASGTA [T450A], the “effect of a mutation on the interaction” value is “increasing interaction”.
